Experimental data: patent US20170233470A1 (INSERM INSTITUT NATIONAL DE LA SANT ET DE LA RECHERCHE M …, published 2017)

Biological target: Neurotensin (NTS) (UniProt P30990 151-163)
Assay: cell-based or functional assay

B1: NTSp27-7.4 (antibody, V domains shown)
VH: DVKLVESGGGLVKLGGSLKLSCAASGFTFSGYYMSWVRQTPEKRLELVAAINNYGDNTNYPDTVKGRFSVSRDNAKNTLYLEMNSLKSEDTALYYCARLANYANQRGAMDYWGQGTSVTVSS
VL: DIQMTHTTSSLSASLGDRVTISCRASQDIANYLNWYQQKPDGTVTLLIYYTSRLHSGVPSRFSGSGSGTDYSLTINNLDQEDIATYFCQQGYTLPPTFGGGTKLEIK
- apoptosis of A2780 cells (Annexin V-FITC/PI, flow cytometry), fold increase relative to control cells: 2.5 fold
- apoptosis of SKOV3 cells (Annexin V-FITC/PI, flow cytometry), fold increase relative to control cells: 8.2 fold
